Test results from the supplement of paper PMC10724198.
± gives the standard deviation of the averaged measurements.

system: Saccharomyces cerevisiae; test: protein stability index of tFT-peptide fusion (C-terminal peptide) (PSI (0-1 scale)); higher = more stable (slower turnover); settings: genetic background: doa10 deletion; temperature: 30 C
Method: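 MPS profiling in S. cerevisiae of the tFT-X12 degron library: putative degron peptides plus stable controls, 12 aa, fused to the C-terminus of a sfGFP-mCherry timer. Cells are FACS-sorted into 8 mCherry/sfGFP bins and deep-sequenced. PSI runs from 0 (unstable) to 1 (stable). Backgrounds are wild type, das1Δ and doa10Δ at 30 °C, and wild type, das1Δ, cdc34-1 and cdc53-1 at 37 °C; 2-3 technical replicates each.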
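Also: PSI is a weighted mean of sequencing reads over stability bins, variants kept only with over 10 reads, mCherry proximal and sfGFP distal, peptide attached via GGGS linker.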

Sequence | protein stability index
ISVSVVFFVLRF | 0.294 ± 0.017
IYPPVSVTNLLV | 0.227 ± 0.029
KAEKNSKKTSTE | 0.633 ± 0.031
KALSSSYFGTRL | 0.649 ± 0.019
KCEKGLYCCIAF | 0.516 ± 0.025
KEKGVTKIRISS | 0.1724 ± 0.00028
KEKKKTKHNKIG | 0.184 ± 0.029
KIVNNTKKNKCH | 0.153 ± 0.021
KLALVYLLIRGL | 0.0641 ± 0.01
KLLGVLFVLFPG | 0.324 ± 0.0068
KLRIVYAKVVCS | 0.247 ± 0.019
KSEKTYTYQVIQ | 0.329 ± 0.031
KVALWRRGVLAA | 0.142 ± 0.0064
LCGYVGVVVCLV | 0.175 ± 0.0034
LCIRHFRLLELL | 0.165 ± 0.011
LCSYSTIPLRLY | 0.188 ± 0.0019
LCWASLLIVYLP | 0.27 ± 0.017
LEYCLATYLSAC | 0.211 ± 0.0025
LFFSFLFLATRC | 0.2246 ± 0.00043
LFFVCSGVVFSF | 0.38 ± 0.01
LFGFLCVVMCCG | 0.412 ± 0.023
LFLFFFLPPLLF | 0.439 ± 0.018
LFLSFLLLYFRP | 0.439 ± 0.021
LFMRGEDEMFSV | 0.668 ± 0.012
LFPLFTLIFVHL | 0.119 ± 0.025
LFTRSIRNLKSL | 0.303 ± 0.0033

Sequence | protein stability index
LFVFVISSSSFP | 0.291 ± 0.022
LFWCCVGLSVWR | 0.278 ± 0.0092
LFWPPCYLFFCL | 0.393 ± 0.03
LFWTLSKYLIIC | 0.0759 ± 0.0053
LGFFIFSFLILK | 0.263 ± 0.017
LGFHFFFTLIFF | 0.4518 ± 0.0032
LGLLIFQWARVL | 0.0666 ± 0.012
LGVVVGGVRGVG | 0.467 ± 0.012
LHRLRFTLVQVS | 0.127 ± 0.018
LIAPSACNLFLF | 0.288 ± 0.0042
LIRDLLYMAVLV | 0.32 ± 0.0083
LISRLVLVFVIP | 0.284 ± 0.021
LIVCVKAITIVS | 0.0226 ± 0.0029
LKCFLVLTFWFS | 0.184 ± 0.021
LLHFVLYFLSCT | 0.42 ± 0.03
LLHQSVHSHIPP | 0.641 ± 0.018
LLILSLLVLSSR | 0.2034 ± 0.00063
LLLCVVLVSVFG | 0.0854 ± 0.0049
LLLFSFAALANF | 0.245 ± 0.0066
LLLFTPFYLLLR | 0.525 ± 0.015
LLLPVFRFFFVN | 0.0849 ± 0.023
LLRFFPCFLGVN | 0.43 ± 0.023
LLTAARAQLFAV | 0.457 ± 0.013
LLVSVVFVSRFF | 0.213 ± 0.0049
LLWALGLVLVEG | 0.171 ± 0.0078
LNLACCWFVRCR | 0.2269 ± 0.00044

Sequence | protein stability index
LNSSVLRLRFFV | 0.0882 ± 0.011
LPLCGLLLFLFF | 0.42 ± 0.024
LPLQPPPPVCLP | 0.634 ± 0.031
LPPFGLFLFVFI | 0.274 ± 0.008
LPPSTFLLHFLL | 0.218 ± 0.018
LPTGLKTFLIAF | 0.374 ± 0.0094
LPVPARPFPPSS | 0.705 ± 0.031
LQSYVSRLVRLS | 0.191 ± 0.0033
LRFFLPFLLSLP | 0.158 ± 0.0035
LRFSLLRVGWLC | 0.28 ± 0.0089
LRGIVSVWILRA | 0.149 ± 0.0028
LRLLSLIPPLSC | 0.34 ± 0.011
LRSPCALVLLLI | 0.213 ± 0.0037
LSAVISLRIQLS | 0.3636 ± 0.0016
LSFFICSFFFVL | 0.344 ± 0.006
LSFLSLIFSICY | 0.355 ± 0.0012
LSGDIPWSFVPV | 0.673 ± 0.028
LSIGCRCLWGWF | 0.577 ± 0.009
LSLCPVHRLLVL | 0.358 ± 0.0063
LSLSPRLPRLVA | 0.156 ± 0.0087
LSRFGSTCPSGL | 0.6358 ± 0.0032
LSRHLILFIVIR | 0.289 ± 0.019
LSVYFSLSLCVS | 0.392 ± 0.0084
LTCTSTPMACRV | 0.429 ± 0.015
LVCLPVGFFLMW | 0.388 ± 0.0045
LVCLVFVRSSLV | 0.205 ± 0.0029
